This passage reports Ho/Con_2aR and He/Con_2b results from patent US20150344570A1 (published 2015).

The target in experiment [1] is T1, FcγRIIa R extracellular domain with C-terminal His tag (human, UniProt P12318 34-217).
T1 construct: extracellular domain; also called FcgRIIa R; 2aR; not shown: His tag at the C terminus
T1 sequence (looked up): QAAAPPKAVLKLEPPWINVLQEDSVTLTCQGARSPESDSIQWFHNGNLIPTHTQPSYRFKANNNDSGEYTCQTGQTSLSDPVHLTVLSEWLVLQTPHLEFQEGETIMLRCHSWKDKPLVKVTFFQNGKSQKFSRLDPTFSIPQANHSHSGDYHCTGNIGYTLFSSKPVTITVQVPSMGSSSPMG
Nature of the experiment: SPR (Biacore), relative FcγRIIa R binding, GpH7-B3/GpL16-k0 = 100. As for the experimental part: (§1) Analysis of interaction between objective antibody and the FcγR was carried out using Biacore T100 (GE Healthcare). HBS-EP+ (GE Healthcare) was used as the running buffer, and the measurement temperature was set to 25° C. Chips produced by immobilizing the antigen peptide by the amine coupling method to a Series S Sencor Chip CM5 (GE Healthcare), or alternatively, chips produced by allowing preliminarily biotinylated antigen peptides to interact with and immobilize onto a Series S Sensor Chip SA (certified) (GE Healthcare) were used. Antibodies of interest were captured onto an antigen peptide-immobilized chip, and allowed to interact to each FcγR diluted with running buffer. To regenerate and repeatedly use the chip, the antibodies captured on the chip were washed off by reacting 10 mM glycine-HCl, pH 1.5.
On the technique in general: Surface plasmon resonance follows binding to a sensor surface in real time, without labels.

Experiment [2] concerns the target T2, FcγRIIb extracellular domain with C-terminal His tag (human, UniProt P31994 43-217).
T2 construct: extracellular domain; also called FcgRIIb; 2b; not shown: His tag at the C terminus
T2 sequence (looked up): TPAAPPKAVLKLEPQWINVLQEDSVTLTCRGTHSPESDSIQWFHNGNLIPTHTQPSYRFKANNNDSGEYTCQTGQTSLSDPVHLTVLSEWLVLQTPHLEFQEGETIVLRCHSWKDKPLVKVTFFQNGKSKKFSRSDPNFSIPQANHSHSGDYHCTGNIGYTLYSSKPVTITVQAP
Nature of the experiment: SPR, relative binding, HeCon Ab = 100. The method, then:
as §1

B1: GpH7-B3 variant S337_02A/GpL16-k0 (antibody, human IgG1, kappa)
heavy: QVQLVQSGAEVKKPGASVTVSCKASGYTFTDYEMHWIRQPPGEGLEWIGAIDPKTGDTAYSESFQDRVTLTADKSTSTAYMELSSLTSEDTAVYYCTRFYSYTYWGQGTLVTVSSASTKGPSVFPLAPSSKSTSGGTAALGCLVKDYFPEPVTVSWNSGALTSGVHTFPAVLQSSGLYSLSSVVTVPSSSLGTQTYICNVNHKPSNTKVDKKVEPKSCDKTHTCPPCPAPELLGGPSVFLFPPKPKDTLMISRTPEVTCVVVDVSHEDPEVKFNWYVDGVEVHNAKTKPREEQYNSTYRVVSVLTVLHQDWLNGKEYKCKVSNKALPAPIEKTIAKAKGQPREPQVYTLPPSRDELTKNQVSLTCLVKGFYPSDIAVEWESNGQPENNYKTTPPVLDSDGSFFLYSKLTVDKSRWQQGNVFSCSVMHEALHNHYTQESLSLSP
light: DIVMTQSPLSLPVTPGEPASISCQASESLVHSNRNTYLHWYLQKPGQSPQLLIYKVSNRFSGVPDRFSGSGSGTDFTLKISRVEAEDVGVYYCSQNTHVPPTFGQGTKVEIERTVAAPSVFIFPPSDEQLKSGTASVVCLLNNFYPREAKVQWKVDNALQSGNSQESVTEQDSKDSTYSLSSTLTLSKADYEKHKVYACEVTHQGLSSPVTKSFNRGEC
notes: homodimerized: alteration in both H chains; also called Ho Ab S337_02A
As to B1, the Ho/Con_2aR in experiment [1] was 102 % of control.

B2: GpH7-A5/GpH7-B3 variant K334_07I/GpL16-k0 (antibody, human IgG1, kappa)
heavy 1: not shown
heavy 2: not shown
light: B1 light
notes: also called He Ab K334_07I
For the molecule B2, in experiment [2], the He/Con_2b was 119 % of control.

B3: GpH7-A5/GpH7-B3 variant K334_05P/GpL16-k0 (antibody, human IgG1, kappa)
heavy 1: not shown
heavy 2: not shown
light: B1 light
notes: also called He Ab K334_05P
As for B3, the He/Con_2b in experiment [2] is 105 % of control.

B4: GpH7-A5/GpH7-B3 variant P331_15Y/GpL16-k0 (antibody, human IgG1, kappa)
heavy 1: not shown
heavy 2: not shown
light: B1 light
notes: also called He Ab P331_15Y
B4: in experiment [2], the He/Con_2b was 114 % of control.

B5: GpH7-B3 variant A330_12R/GpL16-k0 (antibody, human IgG1, kappa)
heavy: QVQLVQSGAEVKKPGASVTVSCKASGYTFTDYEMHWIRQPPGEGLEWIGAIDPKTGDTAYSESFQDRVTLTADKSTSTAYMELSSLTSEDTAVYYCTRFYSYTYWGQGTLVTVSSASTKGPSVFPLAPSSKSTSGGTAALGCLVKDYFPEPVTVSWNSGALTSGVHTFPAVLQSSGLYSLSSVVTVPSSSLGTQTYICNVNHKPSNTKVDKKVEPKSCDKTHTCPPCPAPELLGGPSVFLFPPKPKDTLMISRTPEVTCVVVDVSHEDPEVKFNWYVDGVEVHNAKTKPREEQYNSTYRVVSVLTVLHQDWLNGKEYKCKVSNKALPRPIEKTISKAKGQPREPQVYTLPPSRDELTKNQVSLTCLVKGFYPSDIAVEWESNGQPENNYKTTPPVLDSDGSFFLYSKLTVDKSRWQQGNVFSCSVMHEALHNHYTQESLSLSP
light: B1 light
notes: homodimerized: alteration in both H chains; also called Ho Ab A330_12R
Take B5: in experiment [1], the Ho/Con_2aR is 101 % of control.

B6: GpH7-B3 variant A330_01G/GpL16-k0 (antibody, human IgG1, kappa)
heavy: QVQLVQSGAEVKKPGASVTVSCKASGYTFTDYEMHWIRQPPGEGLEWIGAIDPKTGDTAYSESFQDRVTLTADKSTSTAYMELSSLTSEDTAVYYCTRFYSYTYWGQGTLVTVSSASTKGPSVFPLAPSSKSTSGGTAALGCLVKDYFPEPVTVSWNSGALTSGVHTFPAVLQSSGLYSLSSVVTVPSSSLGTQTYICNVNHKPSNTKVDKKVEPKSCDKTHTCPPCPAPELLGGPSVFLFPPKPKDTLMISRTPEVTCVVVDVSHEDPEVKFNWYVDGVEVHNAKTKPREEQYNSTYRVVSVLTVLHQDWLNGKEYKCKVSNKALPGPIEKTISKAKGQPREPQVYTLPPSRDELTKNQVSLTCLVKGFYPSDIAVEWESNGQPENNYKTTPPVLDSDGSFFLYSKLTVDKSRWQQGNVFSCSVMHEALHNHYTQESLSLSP
light: B1 light
notes: homodimerized: alteration in both H chains; also called Ho Ab A330_01G
Take B6: in experiment [1], the Ho/Con_2aR was 106 % of control.

B7: GpH7-A5/GpH7-B3 variant S267_06M/GpL16-k0 (antibody, human IgG1, kappa)
heavy 1: not shown
heavy 2: not shown
light: B1 light
notes: also called He Ab S267_06M
In the case of B7, the He/Con_2b in experiment [2] is 210 % of control.

B8: GpH7-B3 variant G237_04F/GpL16-k0 (antibody, human IgG1, kappa)
heavy: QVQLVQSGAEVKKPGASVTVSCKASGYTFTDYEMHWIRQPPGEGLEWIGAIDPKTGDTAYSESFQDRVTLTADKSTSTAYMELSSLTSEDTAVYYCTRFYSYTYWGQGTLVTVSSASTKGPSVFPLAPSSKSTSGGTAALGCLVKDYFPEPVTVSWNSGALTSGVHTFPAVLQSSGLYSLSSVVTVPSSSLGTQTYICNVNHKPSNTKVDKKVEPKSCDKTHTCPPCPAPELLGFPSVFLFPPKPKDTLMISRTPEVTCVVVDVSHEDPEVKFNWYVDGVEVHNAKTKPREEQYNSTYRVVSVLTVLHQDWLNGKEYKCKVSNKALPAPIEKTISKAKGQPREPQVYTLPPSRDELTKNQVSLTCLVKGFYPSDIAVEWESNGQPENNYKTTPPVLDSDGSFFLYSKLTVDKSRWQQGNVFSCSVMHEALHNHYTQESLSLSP
light: B1 light
notes: homodimerized: alteration in both H chains; also called Ho Ab G237_04F
B8: the Ho/Con_2aR in experiment [1] is 113 % of control.

B9: GpH7-A5/GpH7-B3 variant T335_07I/GpL16-k0 (antibody, human IgG1, kappa)
heavy 1: not shown
heavy 2: not shown
light: B1 light
notes: also called He Ab T335_07I
As to B9, the He/Con_2b in experiment [2] is 106 % of control.

B10: GpH7-A5/GpH7-B3 variant S239_03V/GpL16-k0 (antibody, human IgG1, kappa)
heavy 1: not shown
heavy 2: not shown
light: B1 light
notes: also called He Ab S239_03V
Consider B10, for which the He/Con_2b in experiment [2] was 108 % of control.

B11: GpH7-B3 variant K326_04F/GpL16-k0 (antibody, human IgG1, kappa)
heavy: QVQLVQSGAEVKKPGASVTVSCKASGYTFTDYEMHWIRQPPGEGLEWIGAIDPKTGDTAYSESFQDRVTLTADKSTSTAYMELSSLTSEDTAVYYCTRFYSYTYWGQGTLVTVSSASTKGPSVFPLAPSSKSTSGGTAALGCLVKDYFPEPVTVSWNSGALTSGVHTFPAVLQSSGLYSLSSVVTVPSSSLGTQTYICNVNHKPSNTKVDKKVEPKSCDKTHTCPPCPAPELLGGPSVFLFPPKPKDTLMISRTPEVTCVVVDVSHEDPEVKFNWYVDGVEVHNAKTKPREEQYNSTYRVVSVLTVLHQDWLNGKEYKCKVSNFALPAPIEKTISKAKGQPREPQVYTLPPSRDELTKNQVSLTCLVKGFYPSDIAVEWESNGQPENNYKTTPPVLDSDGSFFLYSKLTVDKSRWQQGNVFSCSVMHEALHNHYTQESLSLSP
light: B1 light
notes: homodimerized: alteration in both H chains; also called Ho Ab K326_04F
In the case of B11, in experiment [1], the Ho/Con_2aR was 133 % of control.

B12: GpH7-A5/GpH7-B3 variant K334_03V/GpL16-k0 (antibody, human IgG1, kappa)
heavy 1: not shown
heavy 2: not shown
light: B1 light
notes: also called He Ab K334_03V
On to B12, for which the He/Con_2b in experiment [2] was 125 % of control.

B13: GpH7-A5/GpH7-B3 variant K334_04F/GpL16-k0 (antibody, human IgG1, kappa)
heavy 1: not shown
heavy 2: not shown
light: B1 light
notes: also called He Ab K334_04F
For B13, in experiment [2], the He/Con_2b was 111 % of control.

B14: GpH7-A5/GpH7-B3 variant P238_04F/GpL16-k0 (antibody, human IgG1, kappa)
heavy 1: not shown
heavy 2: not shown
light: B1 light
notes: also called He Ab P238_04F
B14: the He/Con_2b in experiment [2] is 312 % of control.

B15: GpH7-B3 variant A327_09D/GpL16-k0 (antibody, human IgG1, kappa)
heavy: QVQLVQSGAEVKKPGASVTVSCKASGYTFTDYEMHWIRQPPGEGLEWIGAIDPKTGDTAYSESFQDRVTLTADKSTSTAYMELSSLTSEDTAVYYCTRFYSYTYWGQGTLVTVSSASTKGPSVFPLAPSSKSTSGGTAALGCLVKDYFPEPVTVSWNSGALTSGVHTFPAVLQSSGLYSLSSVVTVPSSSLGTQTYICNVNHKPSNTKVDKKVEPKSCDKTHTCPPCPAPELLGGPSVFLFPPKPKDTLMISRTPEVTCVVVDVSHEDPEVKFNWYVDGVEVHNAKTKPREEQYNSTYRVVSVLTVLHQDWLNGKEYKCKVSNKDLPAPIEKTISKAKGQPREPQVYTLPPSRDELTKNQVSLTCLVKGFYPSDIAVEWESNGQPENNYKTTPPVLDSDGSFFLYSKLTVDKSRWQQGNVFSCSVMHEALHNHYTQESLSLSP
light: B1 light
notes: homodimerized: alteration in both H chains; also called Ho Ab A327_09D
In the case of B15, in experiment [1], the Ho/Con_2aR is 120 % of control.

B16: GpH7-A5/GpH7-B3 variant K334_08L/GpL16-k0 (antibody, human IgG1, kappa)
heavy 1: not shown
heavy 2: not shown
light: B1 light
notes: also called He Ab K334_08L
Take B16: the He/Con_2b in experiment [2] was 106 % of control.

B17: GpH7-A5/GpH7-B3 variant S324_06M/GpL16-k0 (antibody, human IgG1, kappa)
heavy 1: not shown
heavy 2: not shown
light: B1 light
notes: also called He Ab S324_06M
For B17, the He/Con_2b in experiment [2] is 112 % of control.

B18: GpH7-A5/GpH7-B3 variant T335_15Y/GpL16-k0 (antibody, human IgG1, kappa)
heavy 1: not shown
heavy 2: not shown
light: B1 light
notes: also called He Ab T335_15Y
On to B18, for which the He/Con_2b in experiment [2] is 108 % of control.

B19: GpH7-A5/GpH7-B3 variant P238_09D/GpL16-k0 (antibody, human IgG1, kappa)
heavy 1: not shown
heavy 2: not shown
light: B1 light
notes: also called He Ab P238_09D
For B19, in experiment [2], the He/Con_2b is 221 % of control.

B20: GpH7-B3 variant I332_06M/GpL16-k0 (antibody, human IgG1, kappa)
heavy: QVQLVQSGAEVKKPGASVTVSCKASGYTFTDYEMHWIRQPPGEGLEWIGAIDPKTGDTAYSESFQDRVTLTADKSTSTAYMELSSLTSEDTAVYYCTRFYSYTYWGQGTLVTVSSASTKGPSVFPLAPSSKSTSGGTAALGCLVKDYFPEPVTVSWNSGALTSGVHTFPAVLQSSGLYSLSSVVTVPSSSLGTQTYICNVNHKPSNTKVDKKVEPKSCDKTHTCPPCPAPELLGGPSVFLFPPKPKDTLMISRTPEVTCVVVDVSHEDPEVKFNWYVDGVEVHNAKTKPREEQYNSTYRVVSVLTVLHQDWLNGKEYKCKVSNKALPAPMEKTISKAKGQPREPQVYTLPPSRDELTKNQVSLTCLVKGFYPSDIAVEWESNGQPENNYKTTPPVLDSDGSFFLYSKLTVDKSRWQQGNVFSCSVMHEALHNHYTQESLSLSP
light: B1 light
notes: homodimerized: alteration in both H chains; also called Ho Ab I332_06M
Take B20: the Ho/Con_2aR in experiment [1] is 105 % of control.

B21: GpH7-A5/GpH7-B3 variant K334_14T/GpL16-k0 (antibody, human IgG1, kappa)
heavy 1: not shown
heavy 2: not shown
light: B1 light
notes: also called He Ab K334_14T
With B21, in experiment [2], the He/Con_2b was 115 % of control.

B22: GpH7-B3 variant K326_03V/GpL16-k0 (antibody, human IgG1, kappa)
heavy: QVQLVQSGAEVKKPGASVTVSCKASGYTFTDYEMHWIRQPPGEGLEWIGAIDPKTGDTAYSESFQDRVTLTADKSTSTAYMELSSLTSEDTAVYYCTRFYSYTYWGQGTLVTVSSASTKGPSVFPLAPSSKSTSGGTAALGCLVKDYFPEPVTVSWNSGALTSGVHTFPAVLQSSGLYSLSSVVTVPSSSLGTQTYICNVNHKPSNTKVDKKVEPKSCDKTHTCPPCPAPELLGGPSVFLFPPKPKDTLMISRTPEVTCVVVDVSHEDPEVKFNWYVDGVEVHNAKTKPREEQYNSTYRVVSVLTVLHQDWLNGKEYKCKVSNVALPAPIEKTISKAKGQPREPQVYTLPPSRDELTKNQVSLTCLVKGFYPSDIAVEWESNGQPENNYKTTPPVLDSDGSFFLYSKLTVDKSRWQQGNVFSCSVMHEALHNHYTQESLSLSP
light: B1 light
notes: homodimerized: alteration in both H chains; also called Ho Ab K326_03V
Take B22: the Ho/Con_2aR in experiment [1] was 139 % of control.

B23: GpH7-B3 variant G237_20W/GpL16-k0 (antibody, human IgG1, kappa)
heavy: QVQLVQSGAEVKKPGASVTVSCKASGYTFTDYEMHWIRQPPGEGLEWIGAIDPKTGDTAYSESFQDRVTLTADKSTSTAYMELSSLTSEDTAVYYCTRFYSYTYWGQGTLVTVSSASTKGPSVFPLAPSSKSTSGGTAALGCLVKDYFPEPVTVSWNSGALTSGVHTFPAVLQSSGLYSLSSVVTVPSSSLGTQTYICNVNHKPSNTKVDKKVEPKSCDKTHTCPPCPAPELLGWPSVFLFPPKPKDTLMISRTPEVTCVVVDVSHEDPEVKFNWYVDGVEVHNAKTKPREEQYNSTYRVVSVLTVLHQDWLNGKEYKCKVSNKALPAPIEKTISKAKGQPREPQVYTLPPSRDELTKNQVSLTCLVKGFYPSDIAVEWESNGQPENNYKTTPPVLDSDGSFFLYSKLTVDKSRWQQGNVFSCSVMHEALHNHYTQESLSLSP
light: B1 light
notes: homodimerized: alteration in both H chains; also called Ho Ab G237_20W
In the case of B23, the Ho/Con_2aR in experiment [1] was 107 % of control.

B24: GpH7-A5/GpH7-B3 variant S267_19Q/GpL16-k0 (antibody, human IgG1, kappa)
heavy 1: not shown
heavy 2: not shown
light: B1 light
notes: also called He Ab S267_19Q
Turning to B24, the He/Con_2b in experiment [2] is 218 % of control.

B25: GpH7-B3 variant A327_10E/GpL16-k0 (antibody, human IgG1, kappa)
heavy: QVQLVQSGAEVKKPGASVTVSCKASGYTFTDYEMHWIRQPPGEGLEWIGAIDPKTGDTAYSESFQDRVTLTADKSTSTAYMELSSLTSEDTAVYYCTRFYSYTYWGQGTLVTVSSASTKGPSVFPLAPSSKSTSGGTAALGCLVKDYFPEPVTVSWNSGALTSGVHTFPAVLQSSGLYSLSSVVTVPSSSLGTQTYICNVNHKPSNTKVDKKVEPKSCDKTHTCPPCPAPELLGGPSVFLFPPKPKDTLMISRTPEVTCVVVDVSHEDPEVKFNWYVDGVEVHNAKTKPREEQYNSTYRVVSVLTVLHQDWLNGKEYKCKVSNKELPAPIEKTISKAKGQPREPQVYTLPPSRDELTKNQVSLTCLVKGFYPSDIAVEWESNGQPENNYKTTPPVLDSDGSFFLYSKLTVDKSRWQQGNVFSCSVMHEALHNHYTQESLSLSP
light: B1 light
notes: homodimerized: alteration in both H chains; also called Ho Ab A327_10E
Consider B25, for which the Ho/Con_2aR in experiment [1] is 104 % of control.

B26: GpH7-A5/GpH7-B3 variant L235_20W/GpL16-k0 (antibody, human IgG1, kappa)
heavy 1: not shown
heavy 2: not shown
light: B1 light
notes: also called He Ab L235_20W
As for B26, the He/Con_2b in experiment [2] was 147 % of control.

B27: GpH7-A5/GpH7-B3 variant L328_13S/GpL16-k0 (antibody, human IgG1, kappa)
heavy 1: not shown
heavy 2: not shown
light: B1 light
notes: also called He Ab L328_13S
As to B27, the He/Con_2b in experiment [2] was 149 % of control.

B28: GpH7-A5/GpH7-B3 variant L328_02A/GpL16-k0 (antibody, human IgG1, kappa)
heavy 1: not shown
heavy 2: not shown
light: B1 light
notes: also called He Ab L328_02A
For B28, the He/Con_2b in experiment [2] was 144 % of control.

B29: GpH7-A5/GpH7-B3 variant P331_20W/GpL16-k0 (antibody, human IgG1, kappa)
heavy 1: not shown
heavy 2: not shown
light: B1 light
notes: also called He Ab P331_20W
Regarding B29, the He/Con_2b in experiment [2] is 111 % of control.

B30: GpH7-A5/GpH7-B3 variant S239_10E/GpL16-k0 (antibody, human IgG1, kappa)
heavy 1: not shown
heavy 2: not shown
light: B1 light
notes: also called He Ab S239_10E
Turning to B30, the He/Con_2b in experiment [2] was 181 % of control.

B31: GpH7-A5/GpH7-B3 variant P238_15Y/GpL16-k0 (antibody, human IgG1, kappa)
heavy 1: not shown
heavy 2: not shown
light: B1 light
notes: also called He Ab P238_15Y
In the case of B31, the He/Con_2b in experiment [2] was 218 % of control.

B32: GpH7-A5/GpH7-B3 variant S337_16H/GpL16-k0 (antibody, human IgG1, kappa)
heavy 1: not shown
heavy 2: not shown
light: B1 light
notes: also called He Ab S337_16H
Take B32: in experiment [2], the He/Con_2b is 105 % of control.

B33: GpH7-A5/GpH7-B3 variant Y296_20W/GpL16-k0 (antibody, human IgG1, kappa)
heavy 1: not shown
heavy 2: not shown
light: B1 light
notes: also called He Ab Y296_20W
On to B33, for which the He/Con_2b in experiment [2] is 103 % of control.

B34: GpH7-A5/GpH7-B3 variant T335_10E/GpL16-k0 (antibody, human IgG1, kappa)
heavy 1: not shown
heavy 2: not shown
light: B1 light
notes: also called He Ab T335_10E
As to B34, in experiment [2], the He/Con_2b was 108 % of control.

B35: GpH7-B3 variant I336_08L/GpL16-k0 (antibody, human IgG1, kappa)
heavy: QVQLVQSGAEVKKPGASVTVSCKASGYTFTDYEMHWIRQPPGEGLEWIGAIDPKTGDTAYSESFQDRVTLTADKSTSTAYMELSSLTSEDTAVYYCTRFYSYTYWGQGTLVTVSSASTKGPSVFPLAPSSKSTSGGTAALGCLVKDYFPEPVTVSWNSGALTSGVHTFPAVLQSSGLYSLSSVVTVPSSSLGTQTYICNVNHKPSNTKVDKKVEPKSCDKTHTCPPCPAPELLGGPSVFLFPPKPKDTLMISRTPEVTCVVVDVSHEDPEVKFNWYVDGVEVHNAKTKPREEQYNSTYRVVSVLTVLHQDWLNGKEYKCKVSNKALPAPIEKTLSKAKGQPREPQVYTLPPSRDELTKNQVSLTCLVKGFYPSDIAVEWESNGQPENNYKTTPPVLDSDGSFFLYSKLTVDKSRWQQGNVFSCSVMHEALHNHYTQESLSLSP
light: B1 light
notes: homodimerized: alteration in both H chains; also called Ho Ab I336_08L
For the molecule B35, the Ho/Con_2aR in experiment [1] is 105 % of control.

B36: GpH7-A5/GpH7-B3 variant K334_10E/GpL16-k0 (antibody, human IgG1, kappa)
heavy 1: not shown
heavy 2: not shown
light: B1 light
notes: also called He Ab K334_10E
Consider B36, for which the He/Con_2b in experiment [2] is 114 % of control.

B37: GpH7-A5/GpH7-B3 variant P331_16H/GpL16-k0 (antibody, human IgG1, kappa)
heavy 1: not shown
heavy 2: not shown
light: B1 light
notes: also called He Ab P331_16H
For B37, the He/Con_2b in experiment [2] was 116 % of control.

B38: GpH7-B3 variant H268_01G/GpL16-k0 (antibody, human IgG1, kappa)
heavy: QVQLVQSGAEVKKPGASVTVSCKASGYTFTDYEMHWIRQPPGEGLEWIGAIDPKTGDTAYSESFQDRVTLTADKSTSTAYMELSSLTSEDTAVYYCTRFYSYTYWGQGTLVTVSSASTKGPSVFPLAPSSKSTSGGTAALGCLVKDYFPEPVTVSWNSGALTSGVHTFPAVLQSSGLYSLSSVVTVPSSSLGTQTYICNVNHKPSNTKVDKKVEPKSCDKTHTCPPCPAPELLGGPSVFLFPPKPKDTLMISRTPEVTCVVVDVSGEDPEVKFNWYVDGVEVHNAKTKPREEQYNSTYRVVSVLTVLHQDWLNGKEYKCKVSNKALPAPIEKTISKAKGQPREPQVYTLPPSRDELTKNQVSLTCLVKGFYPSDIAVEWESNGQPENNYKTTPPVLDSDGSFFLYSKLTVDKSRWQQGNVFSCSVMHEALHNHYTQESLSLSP
light: B1 light
notes: homodimerized: alteration in both H chains; also called Ho Ab H268_01G
In the case of B38, in experiment [1], the Ho/Con_2aR is 122 % of control.

B39: GpH7-A5/GpH7-B3 variant K334_13S/GpL16-k0 (antibody, human IgG1, kappa)
heavy 1: not shown
heavy 2: not shown
light: B1 light
notes: also called He Ab K334_13S
As to B39, the He/Con_2b in experiment [2] is 111 % of control.

B40: GpH7-A5/GpH7-B3 variant V266_06M/GpL16-k0 (antibody, human IgG1, kappa)
heavy 1: not shown
heavy 2: not shown
light: B1 light
notes: also called He Ab V266_06M
In the case of B40, in experiment [2], the He/Con_2b is 251 % of control.
